In US10874712B2, “Methods, compounds and compositions for modulating blood brain barrier integrity and re-myelination” (University Health Network, priority 2015, dated 2020):
Entries after “also recorded” stand apart in the source; their conditions may differ.

T1: Neogenin (Homo sapiens, UniProt Q92859)
T1 construct: His-tagged proteins (2.5 μg/mL of extracellular-Neogenin or sRGMa or sRGMc) were then coated onto each well; His tag (coated format); Alkaline phosphatase (AP) fusion (solution format, Ec-Neogenin-AP); made in house
T1 sequence (Q92859 34-1105 limits assumed): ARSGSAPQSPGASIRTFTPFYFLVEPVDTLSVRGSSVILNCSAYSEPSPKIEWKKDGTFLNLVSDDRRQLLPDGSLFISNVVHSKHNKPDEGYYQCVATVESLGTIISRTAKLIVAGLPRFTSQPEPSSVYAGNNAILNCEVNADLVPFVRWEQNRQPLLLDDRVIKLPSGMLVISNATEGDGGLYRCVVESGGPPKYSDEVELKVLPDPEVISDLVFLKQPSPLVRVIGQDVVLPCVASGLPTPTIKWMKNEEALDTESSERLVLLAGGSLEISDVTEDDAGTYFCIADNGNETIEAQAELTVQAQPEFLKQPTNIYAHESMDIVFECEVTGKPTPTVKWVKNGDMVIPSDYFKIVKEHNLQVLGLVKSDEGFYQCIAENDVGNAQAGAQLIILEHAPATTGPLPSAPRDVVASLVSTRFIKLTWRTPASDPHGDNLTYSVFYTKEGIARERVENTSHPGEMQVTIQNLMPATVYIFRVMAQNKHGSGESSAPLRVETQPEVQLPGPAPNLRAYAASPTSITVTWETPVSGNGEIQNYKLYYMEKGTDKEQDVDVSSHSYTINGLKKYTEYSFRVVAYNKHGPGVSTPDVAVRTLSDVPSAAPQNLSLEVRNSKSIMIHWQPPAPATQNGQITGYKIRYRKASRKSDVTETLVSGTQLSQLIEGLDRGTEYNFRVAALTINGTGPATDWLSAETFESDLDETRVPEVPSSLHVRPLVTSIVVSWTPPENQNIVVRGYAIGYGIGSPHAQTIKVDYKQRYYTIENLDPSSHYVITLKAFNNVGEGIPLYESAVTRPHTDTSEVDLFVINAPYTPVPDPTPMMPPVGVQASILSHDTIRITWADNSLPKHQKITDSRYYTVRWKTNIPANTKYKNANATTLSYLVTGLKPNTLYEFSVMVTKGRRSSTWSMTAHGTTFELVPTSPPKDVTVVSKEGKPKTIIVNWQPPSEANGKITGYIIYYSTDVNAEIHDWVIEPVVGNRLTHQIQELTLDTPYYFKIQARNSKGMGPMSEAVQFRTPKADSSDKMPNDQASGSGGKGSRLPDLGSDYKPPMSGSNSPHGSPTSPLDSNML


Legend:
[1] = test system: b.end3 cells; assay: In vitro BBB permeability, Dextran-FITC extravasation in Boyden chamber; assay type: cell-based, mouse; conditions: b.end3 monolayer; for extravasation of Dextran-FITC in sRGMa-treated cells: 4 h pre-treatment (10 μg/mL sRGMc, 10 μg/mL C3 Transferase or 10 μM Y27632), then RGMa 18 h
Description: (A) Neogenin expression was analyzed on the membrane of b.end3 cells using immunohistochemical staining and by Western blot. (B) Crystal violet staining showing the b.end3 cell monolayer, (C) Representative diagram of the boyden chamber set up and (D) BBB permeability in b.end3 cells. Serum-starved cells were incubated for 4 h with RGMa (10 μg/ml), C3 Transferase (10 μg/mL) or Y27632 (10 μM) or sRGMc (10 μg/mL) and were then incubated with sRGMa (5 μg/mL) for 18 h followed by seeding of Dextran-FITC onto the upper chamber. Extravasation was measured over a period of 60 min as described in the Examples. n=3, performed in triplicates.
b.End3 endothelial cells were used to generate an in vitro model of the human EC barrier lining the choroid plexus. Briefly, b.end3 cells were plated on polyethylene-coated 0.4 μm pore size Boyden chambers (Corning) at a density of 2×10^5 cells per well in DMEM, and were allowed to grow for 72 h to reach confluency (verified using crystal violet staining). After 72 h, cells were serum starved for 6 h and pre-treated for 4 h with 10 μg/mL sRGMc, 10 μg/mL C3 Transferase or 10 μM Y27632. RGMa was then added to the wells for 18 h. The transwells were then transferred to a new plate containing 500 μl of HBSS and 200 μl 4-KDa Dextran-FITC (25 mg/ml; Sigma-Aldrich) was added to the upper chambers. Tracer diffusion across the EC monolayer was assessed in 30 min intervals for a period of 1.5 h. FITC signal, which represented the amount of extravasation through the monolayer was analyzed with using a microplate reader.

[2] = target: T1, Neogenin; assay: In vitro competition binding assay (AP-tagged proteins); conditions: pre-incubation of sRGMa with Ec-Neogenin-AP; compared to BSA control
Description: (C) Binding of Neogenin to bovine serum albumin (Neogenin+BSA), to RGMa (Neogenin+RGMa), and to RGMc (Neogenin+RGMc) in RGMa-AP and in RGMc-AP. Constructs overexpressing His-tagged sRGMa, sRGMc and the extracellular domains of Neogenin (Ec-Neogenin) were coated onto Poly-L-Lysine coated wells. Alkaline Phosphatase (AP)-tagged proteins (EC-Neogenin or RGMa or RGMc) were then added to each well and incubated at 37° C. for 1 h. Each well was washed and equilibrated with AP developing buffer (100 mM NaHCO3, 1 mM MgCl2). The reaction was initiated using AP developing buffer supplemented with p-nitrophenyl phosphate and then stopped following color development by adding 50 μl (0.1M) NaOH. The absorbance of each reaction was measured using a microplate autoreader at 405 nm as described in the Examples. (D) Binding of Neogenin-AP to bovine serum albumin (Neogenin-AP+BSA), to RGMa (Neogenin-AP+RGMa), and to RGMc (Neogenin-AP+RGMc). Competition assay was performed as described in the Examples and above but in which the constructs were reversed.
Using a 96-well microtiter plate (Corning), wells coated with 100 μl (10 μg/mL) of Poly-L-Lysine (Sigma-Aldrich) incubated at 4° C. overnight were then washed 3× with 100 μl of PBST (+0.02% Tween-20). […] The absorbance of each reaction was measured using a microplate autoreader (BioTek EL311 AutoReader) at 405 nm.

[3] = test system: blood brain barrier of mice; assay: BBB permeability, Texas red dye leakage by widefield imaging; assay type: in vivo, mouse; conditions: mice injected with RGMa alone; vs vehicle
Description: Mice were treated with RGMa (70 ug), RGMa (70 ug)+RGMc (70 ug), or Vehicle (1% BSA) 18 h prior to widefield imaging (100-300 ms exposure) prior to and following intravenous injection of Texas Red dye (0.5 mg) over time. […] (B) Quantification of the leakage of Texas Red dye (measured as the number of leakage sites/mm^2).
BBB integrity was assessed in mice treated with PBS (Vehicle), RGMa, RGMc, RGMa+ immunoglobulin domain of Neogenin (4Ig). Widefield imaging was then carried out under a Olympus microscope (BX6 1WI) prior to and following the injection of Texas red dye (100 uL, I.V., 5 mg/ml) using 100-300 ms exposure. Recording was performed from 0 min to 35 min following injection. Texas dye leakage was also assessed in RGMc knockout (KO) and wild type (WT) mice. The leakage of Texas-red dye was quantified by a blind experimenter measuring the number of leakage sites/mm^2. (A) Representative images of Texas red dye: PBS (Vehicle), RGMa, RGMa+RGMc and RGMa+4Ig (immunoglobulin domain of Neogenin). Quantification of the leakage of Texas Red dye in animals treated with (B) PBS (Vehicle), RGMa or RGMa+RGMc or in RGMc KO and WT mice or (C) PBS (Vehicle), RGMa, RGMa+RGMc or RGMa+4Ig.
Mice injected with BSA, RGMc, RGMa, or RGMa+RGMc. […] Leakage of Texas red dye was quantified by a blind experimenter measuring the number of leakage sites/mm^2. […]

[4] = test system: Claudin 5 in b.End3 cells; assay: Claudin 5 expression in endothelial cells by Western blot; assay type: cell-based, mouse; conditions: incubation with RGM proteins
Description: Cells were pretreated for 6 h with PBS, RGMc, RGMa or RGMc+RGMa. Western blotting was performed on the lysates with Claudin-5 and GAPDH antibodies.
Next, the BBB permeability was assessed by injecting mice with BSA, RGMa, RGMa plus RGMc and subsequently followed by assessment of Texas dye leakage using widefield imaging as an indication of BBB integrity. […] Thus, Claudin 5 expression following RGMa/c treatments of murine-derived brain endothelial cells (b.End3) was studied. B.En3 cells were grown up to 80% confluency and were treated with overnight incubation with RGM proteins.

Row | reduction of binding intensity of RGMc to Neogenin [2] [fold] | Molecule | extravasation of Dextran-FITC in sRGMa-treated cells [1] | extravasation of Dextran-FITC ([1]; sRGMa alone, vs vehicle-treated wells) | BBB integrity, leakage of Texas Red dye [3] | reduction in Claudin 5 levels [4] [fold]
1 | – | C[C@@H](N)[C@H]1CC[C@H](C(=O)Nc2ccncc2)CC1 [Y27632, reference compound] | reduced | – | – | –
2 | – | C3 Transferase [reference compound] | reduced | – | – | –
3 | 3 | sRGMa: mouse RGMa cloned with His tag replacing the GPI-anchor, secreted soluble protein (protein, left off: large carriers, mouse RGMa cloned with His tag replacing the GPI-anchor, secreted soluble protein) PHLRTFTDHFQTCKVQGAWPLIDNNYLNVQVTNTPVLPGSAATATSKLTIIFKNFQECVDQKVYQAEMDELPSAFADGSKNGGDKHGANSLKITEKVSGQHVEIQAKYIGTTIVVRQVGRYLTFAVRMPEEVVNAVEDRDSQGLYLCLRGCPLNQQIDFQAFRANAESPRRPAAASPSPVVPETFPYETAVAKCKEKLPVEDLYYQACVFDLLTTGDVNFTLAAYYALEDGKMLHSNKDKLHLFERTRELPGAVAAAA | – | increased | significantly disrupted BBB integrity; also recorded: significantly elevated leakage | 2
